Data reported in US20190112349A1 (UNUM THERAPEUTICS, published 2019).
Read-outs that look alike come from different tables or passages of the source.

Experiments:
Test in all cases: cell-based or functional assay
[1] = target: ACTR variant 1 (wild-type ACTR)
ACTR variant 127 = target: ACTR variant 127
ACTR variant 94 = target: ACTR variant 94
ACTR variant 103 = target: ACTR variant 103
ACTR variant 26 = target: ACTR variant 26
ACTR variant 93 = target: ACTR variant 93
[2] = target: ACTR variant 1 (wild-type ACTR); remark: listed apart in the source
ACTR variant 102 = target: ACTR variant 102
ACTR variant 131 = target: ACTR variant 131
Chain of ACTR variant 131 (chain, as listed by the source mutant limits assumed): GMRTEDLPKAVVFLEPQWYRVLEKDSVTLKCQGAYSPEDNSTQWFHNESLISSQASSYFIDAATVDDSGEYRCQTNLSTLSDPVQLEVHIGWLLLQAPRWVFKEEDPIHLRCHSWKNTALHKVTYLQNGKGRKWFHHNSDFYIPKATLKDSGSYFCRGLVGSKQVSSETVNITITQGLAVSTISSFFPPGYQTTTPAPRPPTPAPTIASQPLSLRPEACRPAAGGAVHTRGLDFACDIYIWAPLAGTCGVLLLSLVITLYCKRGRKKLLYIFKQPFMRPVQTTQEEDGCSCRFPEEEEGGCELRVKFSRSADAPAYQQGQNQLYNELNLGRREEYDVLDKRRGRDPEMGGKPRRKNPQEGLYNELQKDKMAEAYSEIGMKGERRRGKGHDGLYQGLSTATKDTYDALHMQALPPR

Chain of ACTR variant 102 (chain, as listed by the source mutant limits assumed): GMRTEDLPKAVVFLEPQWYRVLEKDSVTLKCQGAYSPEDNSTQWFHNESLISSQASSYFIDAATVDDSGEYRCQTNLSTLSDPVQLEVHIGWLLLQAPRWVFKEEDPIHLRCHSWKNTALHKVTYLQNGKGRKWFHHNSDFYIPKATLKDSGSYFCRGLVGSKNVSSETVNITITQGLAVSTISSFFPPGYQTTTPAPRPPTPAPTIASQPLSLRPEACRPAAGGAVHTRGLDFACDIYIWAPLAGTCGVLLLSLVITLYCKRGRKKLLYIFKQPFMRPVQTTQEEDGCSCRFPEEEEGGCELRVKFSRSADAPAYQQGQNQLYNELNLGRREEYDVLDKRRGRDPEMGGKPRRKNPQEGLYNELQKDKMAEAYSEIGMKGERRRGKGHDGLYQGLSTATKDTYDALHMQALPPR

| Binder | Jurkat NFAT luciferase EC50 [1] [nM] | Jurkat NFAT luciferase EC50 (ACTR variant 127) [nM] | Jurkat NFAT luciferase EC50 (ACTR variant 94) [nM] | Jurkat NFAT luciferase EC50 (ACTR variant 93) [nM] | also measured |
| --- | --- | --- | --- | --- | --- |
| wild-type anti-BCMA antibody (antibody) heavy: not shown light: DIVLTQSPPSLAMSLGKRATISCRASESVTILGSHLIHWYQQKPGQPPTLLIQLASNVQTGVPARFSGSGSRTDFTLTIDPVEEDDVAVYYCLQSRTIPRTFGGGTKLEIKRTVAAPSVFIFPPSDEQLKSGTASVVCLLNNFYPREAKVQWKVDNALQSGNSQESVTEQDSKDSTYSLSSTLTLSKADYEKHKVYACEVTHQGLSSPVTKSFNRGEC | < 20 | – | – | – | – |
| Fc-enhanced anti-BCMA antibody (S239D, I332E) (antibody) heavy: not shown light: DIVLTQSPPSLAMSLGKRATISCRASESVTILGSHLIHWYQQKPGQPPTLLIQLASNVQTGVPARFSGSGSRTDFTLTIDPVEEDDVAVYYCLQSRTIPRTFGGGTKLEIKRTVAAPSVFIFPPSDEQLKSGTASVVCLLNNFYPREAKVQWKVDNALQSGNSQESVTEQDSKDSTYSLSSTLTLSKADYEKHKVYACEVTHQGLSSPVTKSFNRGEC | 0.83 | < 100 | < 100 | – | – |
| afucosylated Fc-enhanced anti-BCMA antibody (S239D, I332E) (antibody, afucosylated Fc glycan) heavy: not shown light: DIVLTQSPPSLAMSLGKRATISCRASESVTILGSHLIHWYQQKPGQPPTLLIQLASNVQTGVPARFSGSGSRTDFTLTIDPVEEDDVAVYYCLQSRTIPRTFGGGTKLEIKRTVAAPSVFIFPPSDEQLKSGTASVVCLLNNFYPREAKVQWKVDNALQSGNSQESVTEQDSKDSTYSLSSTLTLSKADYEKHKVYACEVTHQGLSSPVTKSFNRGEC | 0.17 | 2.26 | 1.12 | < 5 | Jurkat NFAT luciferase EC50 (ACTR variant 103): 8.44 nM; Jurkat NFAT luciferase EC50 (ACTR variant 26): 4.36 nM |
| afucosylated anti-BCMA antibody (antibody, afucosylated Fc glycan) heavy: not shown light: DIVLTQSPPSLAMSLGKRATISCRASESVTILGSHLIHWYQQKPGQPPTLLIQLASNVQTGVPARFSGSGSRTDFTLTIDPVEEDDVAVYYCLQSRTIPRTFGGGTKLEIKRTVAAPSVFIFPPSDEQLKSGTASVVCLLNNFYPREAKVQWKVDNALQSGNSQESVTEQDSKDSTYSLSSTLTLSKADYEKHKVYACEVTHQGLSSPVTKSFNRGEC | 1 | – | – | < 100 | – |
| Fc-enhanced anti-CD19 antibody (antibody, V domains shown) VH: EVQLVESGGGLVKPGGSLKLSCAASGYTFTSYVMHWVRQAPGKGLEWIGYINPYNDGTKYNEKFQGRVTISSDKSISTAYMELSSLRSEDTAMYYCARGTYYYGTRVFDYWGQGTLVTVSS VL: DIVMTQSPATLSLSPGERATLSCRSSKSLQNVNGNTYLYWFQQKPGQSPQLLIYRMSNLNSGVPDRFSGSGSGTEFTLTISSLEPEDFAVYYCMQHLEYPITFGAGTKLEIKR | – | – | – | – | Jurkat NFAT luciferase EC50 [2]: 0.26 nM; Jurkat NFAT luciferase EC50 (ACTR variant 102): 2.2 nM; Jurkat NFAT luciferase EC50 (ACTR variant 131): 2 nM |
